Assays:
[1] = target: full-length recombinant tau (human) (UniProt P10636); experiment: sandwich immuno-PCR, Tau1 capture on plate, HT7-DNA conjugate detection, recombinant tau at 16 pg/ml in synthetic serum
[2] = target: full-length recombinant tau (human) (UniProt P10636); experiment: sandwich immuno-PCR, Tau1 capture on plate, HT7-DNA conjugate detection, recombinant tau at 2000 pg/ml in synthetic serum
[3] = target: full-length recombinant tau (human) (UniProt P10636); experiment: sandwich immuno-PCR, Tau1 capture on plate, HT7-DNA conjugate detection, recombinant tau at 400 pg/ml in synthetic serum
[4] = target: full-length recombinant tau (human) (UniProt P10636); experiment: sandwich immuno-PCR, Tau1 capture on plate, HT7-DNA conjugate detection, recombinant tau at 3.2 pg/ml in synthetic serum
[5] = target: full-length recombinant tau (human) (UniProt P10636); experiment: sandwich immuno-PCR, Tau1 capture on plate, HT7-DNA conjugate detection, recombinant tau at 10000 pg/ml in synthetic serum
[6] = target: full-length recombinant tau (human) (UniProt P10636); experiment: sandwich immuno-PCR, Tau1 capture on plate, HT7-DNA conjugate detection, recombinant tau at 80 pg/ml in synthetic serum
[7] = target: full-length recombinant tau (human) (UniProt P10636); experiment: sandwich immuno-PCR, Tau1 capture on plate, HT7-DNA conjugate detection, recombinant tau at 0.64 pg/ml in synthetic serum

Sequence of UniProt P10636 (P10636 other isoform, or with tags, fused parts or gaps): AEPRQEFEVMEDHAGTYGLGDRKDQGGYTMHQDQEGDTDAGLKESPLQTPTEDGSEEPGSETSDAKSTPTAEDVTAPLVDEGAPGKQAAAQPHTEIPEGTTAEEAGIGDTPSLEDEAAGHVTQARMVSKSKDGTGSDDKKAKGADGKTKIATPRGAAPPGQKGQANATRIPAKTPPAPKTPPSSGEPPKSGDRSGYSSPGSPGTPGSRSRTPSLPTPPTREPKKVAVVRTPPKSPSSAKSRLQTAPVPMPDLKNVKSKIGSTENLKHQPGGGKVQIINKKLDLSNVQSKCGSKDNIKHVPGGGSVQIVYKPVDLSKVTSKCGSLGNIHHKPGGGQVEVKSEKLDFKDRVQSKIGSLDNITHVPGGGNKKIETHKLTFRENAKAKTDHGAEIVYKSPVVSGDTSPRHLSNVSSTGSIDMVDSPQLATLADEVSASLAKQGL

Work on Tau1 (antibody) yielded a delta counts [1] of 21.7 delta counts, a delta counts [2] of 29 delta counts and a delta counts [3] of 26.3 delta counts. The delta counts [4] was 20.6 delta counts, the delta counts [5] was 31.7 delta counts and the delta counts [6] was 23.6 delta counts. The delta counts [7] was 20.3 delta counts.

— patent US20130095492A1
